# Data from the supplement of paper PMC10567573.
# B1: TBX5 (parent)
# chain: YQNHKITQLKIENNPFAKGFRGSD
# Variants of: B1
# Experiment: protein stability index of a GFP-peptide fusion (GPS, HEK-293T) (PSI 1-6); higher = more stable
# Conditions: c terminus: a fixed tail appended
# 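Note: lentivirally expressed fusions sorted by FACS into six bins by GFP to DsRed ratio, PSI derived from sequencing read proportions per bin multiplied by bin number.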
row,Variant,protein stability index
1,YQNHKSTQLKIENNPFAKGFRGSD [I6S],3.04
2,YQNHKTTQLKIENNPFAKGFRGSD [I6T],3.06
3,YQNHKVTQLKIENNPFAKGFRGSD [I6V],2.4
4,YQNHKWTQLKIENNPFAKGFRGSD [I6W],4.36
5,YQNHKYTQLKIENNPFAKGFRGSD [I6Y],2.53
6,YQNHKIAQLKIENNPFAKGFRGSD [T7A],2.15
7,YQNHKICQLKIENNPFAKGFRGSD [T7C],1.94
8,YQNHKIDQLKIENNPFAKGFRGSD [T7D],2.69
9,YQNHKIEQLKIENNPFAKGFRGSD [T7E],3.32
10,YQNHKIFQLKIENNPFAKGFRGSD [T7F],1.61
11,YQNHKIGQLKIENNPFAKGFRGSD [T7G],2.12
12,YQNHKIHQLKIENNPFAKGFRGSD [T7H],2.77
13,YQNHKIIQLKIENNPFAKGFRGSD [T7I],2.5
14,YQNHKIKQLKIENNPFAKGFRGSD [T7K],3.31
15,YQNHKILQLKIENNPFAKGFRGSD [T7L],2.3
16,YQNHKIMQLKIENNPFAKGFRGSD [T7M],2.21
17,YQNHKINQLKIENNPFAKGFRGSD [T7N],2.59
18,YQNHKIPQLKIENNPFAKGFRGSD [T7P],2.85
19,YQNHKIQQLKIENNPFAKGFRGSD [T7Q],2.63
20,YQNHKIRQLKIENNPFAKGFRGSD [T7R],2.48
21,YQNHKISQLKIENNPFAKGFRGSD [T7S],2.46
22,YQNHKIVQLKIENNPFAKGFRGSD [T7V],2.29
23,YQNHKIWQLKIENNPFAKGFRGSD [T7W],3.51
24,YQNHKIYQLKIENNPFAKGFRGSD [T7Y],2.37

row,Variant,protein stability index
1,YQNHKITALKIENNPFAKGFRGSD [Q8A],2.79
2,YQNHKITCLKIENNPFAKGFRGSD [Q8C],1.91
3,YQNHKITDLKIENNPFAKGFRGSD [Q8D],2.75
4,YQNHKITELKIENNPFAKGFRGSD [Q8E],2.97
5,YQNHKITFLKIENNPFAKGFRGSD [Q8F],1.7
6,YQNHKITGLKIENNPFAKGFRGSD [Q8G],2.73
7,YQNHKITHLKIENNPFAKGFRGSD [Q8H],2.41
8,YQNHKITILKIENNPFAKGFRGSD [Q8I],2.06
9,YQNHKITKLKIENNPFAKGFRGSD [Q8K],2.28
10,YQNHKITLLKIENNPFAKGFRGSD [Q8L],1.41
11,YQNHKITMLKIENNPFAKGFRGSD [Q8M],2.2
12,YQNHKITNLKIENNPFAKGFRGSD [Q8N],2.4
13,YQNHKITPLKIENNPFAKGFRGSD [Q8P],2.41
14,YQNHKITRLKIENNPFAKGFRGSD [Q8R],1.99
15,YQNHKITSLKIENNPFAKGFRGSD [Q8S],2.13
16,YQNHKITTLKIENNPFAKGFRGSD [Q8T],2.19
17,YQNHKITVLKIENNPFAKGFRGSD [Q8V],2.49
18,YQNHKITWLKIENNPFAKGFRGSD [Q8W],1.57
19,YQNHKITYLKIENNPFAKGFRGSD [Q8Y],1.57
20,YQNHKITQAKIENNPFAKGFRGSD [L9A],2.83
21,YQNHKITQCKIENNPFAKGFRGSD [L9C],2.02
22,YQNHKITQDKIENNPFAKGFRGSD [L9D],3.21
23,YQNHKITQEKIENNPFAKGFRGSD [L9E],3.09
24,YQNHKITQFKIENNPFAKGFRGSD [L9F],2.26

row,Variant,protein stability index
1,YQNHKITQGKIENNPFAKGFRGSD [L9G],2.35
2,YQNHKITQHKIENNPFAKGFRGSD [L9H],2.38
3,YQNHKITQIKIENNPFAKGFRGSD [L9I],2.73
4,YQNHKITQKKIENNPFAKGFRGSD [L9K],2.81
5,YQNHKITQMKIENNPFAKGFRGSD [L9M],2.58
6,YQNHKITQNKIENNPFAKGFRGSD [L9N],3.01
7,YQNHKITQPKIENNPFAKGFRGSD [L9P],2.84
8,YQNHKITQQKIENNPFAKGFRGSD [L9Q],3.19
9,YQNHKITQRKIENNPFAKGFRGSD [L9R],3.54
10,YQNHKITQSKIENNPFAKGFRGSD [L9S],3.07
11,YQNHKITQTKIENNPFAKGFRGSD [L9T],2.37
12,YQNHKITQVKIENNPFAKGFRGSD [L9V],4.05
13,YQNHKITQWKIENNPFAKGFRGSD [L9W],1.71
14,YQNHKITQYKIENNPFAKGFRGSD [L9Y],2.31
15,YQNHKITQLAIENNPFAKGFRGSD [K10A],2.91
16,YQNHKITQLCIENNPFAKGFRGSD [K10C],2.11
17,YQNHKITQLDIENNPFAKGFRGSD [K10D],2.68
18,YQNHKITQLEIENNPFAKGFRGSD [K10E],3.11
19,YQNHKITQLFIENNPFAKGFRGSD [K10F],1.81
20,YQNHKITQLGIENNPFAKGFRGSD [K10G],1.85
21,YQNHKITQLHIENNPFAKGFRGSD [K10H],2.2
22,YQNHKITQLIIENNPFAKGFRGSD [K10I],1.63
23,YQNHKITQLLIENNPFAKGFRGSD [K10L],2.03
24,YQNHKITQLMIENNPFAKGFRGSD [K10M],2.23

row,Variant,protein stability index
1,YQNHKITQLNIENNPFAKGFRGSD [K10N],2.46
2,YQNHKITQLPIENNPFAKGFRGSD [K10P],3.2
3,YQNHKITQLQIENNPFAKGFRGSD [K10Q],2.5
4,YQNHKITQLRIENNPFAKGFRGSD [K10R],2.58
5,YQNHKITQLSIENNPFAKGFRGSD [K10S],2.79
6,YQNHKITQLTIENNPFAKGFRGSD [K10T],2.74
7,YQNHKITQLVIENNPFAKGFRGSD [K10V],2.02
8,YQNHKITQLWIENNPFAKGFRGSD [K10W],1.95
9,YQNHKITQLYIENNPFAKGFRGSD [K10Y],2.17
10,YQNHKITQLKAENNPFAKGFRGSD [I11A],2.36
11,YQNHKITQLKCENNPFAKGFRGSD [I11C],2.48
12,YQNHKITQLKDENNPFAKGFRGSD [I11D],3.27
13,YQNHKITQLKEENNPFAKGFRGSD [I11E],3.23
14,YQNHKITQLKFENNPFAKGFRGSD [I11F],2.25
15,YQNHKITQLKGENNPFAKGFRGSD [I11G],2.47
16,YQNHKITQLKHENNPFAKGFRGSD [I11H],2.33
17,YQNHKITQLKKENNPFAKGFRGSD [I11K],2.52
18,YQNHKITQLKLENNPFAKGFRGSD [I11L],2.62
19,YQNHKITQLKMENNPFAKGFRGSD [I11M],2.64
20,YQNHKITQLKNENNPFAKGFRGSD [I11N],2.59
21,YQNHKITQLKPENNPFAKGFRGSD [I11P],2.71
22,YQNHKITQLKQENNPFAKGFRGSD [I11Q],2.58
